The values that follow come from paper PMC12432404.

For this assay, the target named is α‐synuclein (UniProt P37840).

DNAJB1, sequence (P25685 whole entry): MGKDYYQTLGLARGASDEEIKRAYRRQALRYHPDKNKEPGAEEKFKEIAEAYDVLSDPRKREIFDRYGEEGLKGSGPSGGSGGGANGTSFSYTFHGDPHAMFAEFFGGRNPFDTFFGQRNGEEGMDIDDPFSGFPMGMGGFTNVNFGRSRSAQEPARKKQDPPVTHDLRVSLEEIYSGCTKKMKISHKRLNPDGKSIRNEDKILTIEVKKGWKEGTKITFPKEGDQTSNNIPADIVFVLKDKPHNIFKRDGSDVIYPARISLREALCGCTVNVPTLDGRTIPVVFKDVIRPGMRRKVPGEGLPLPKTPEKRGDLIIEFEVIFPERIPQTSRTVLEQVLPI
HspA8, sequence (P11142 whole entry): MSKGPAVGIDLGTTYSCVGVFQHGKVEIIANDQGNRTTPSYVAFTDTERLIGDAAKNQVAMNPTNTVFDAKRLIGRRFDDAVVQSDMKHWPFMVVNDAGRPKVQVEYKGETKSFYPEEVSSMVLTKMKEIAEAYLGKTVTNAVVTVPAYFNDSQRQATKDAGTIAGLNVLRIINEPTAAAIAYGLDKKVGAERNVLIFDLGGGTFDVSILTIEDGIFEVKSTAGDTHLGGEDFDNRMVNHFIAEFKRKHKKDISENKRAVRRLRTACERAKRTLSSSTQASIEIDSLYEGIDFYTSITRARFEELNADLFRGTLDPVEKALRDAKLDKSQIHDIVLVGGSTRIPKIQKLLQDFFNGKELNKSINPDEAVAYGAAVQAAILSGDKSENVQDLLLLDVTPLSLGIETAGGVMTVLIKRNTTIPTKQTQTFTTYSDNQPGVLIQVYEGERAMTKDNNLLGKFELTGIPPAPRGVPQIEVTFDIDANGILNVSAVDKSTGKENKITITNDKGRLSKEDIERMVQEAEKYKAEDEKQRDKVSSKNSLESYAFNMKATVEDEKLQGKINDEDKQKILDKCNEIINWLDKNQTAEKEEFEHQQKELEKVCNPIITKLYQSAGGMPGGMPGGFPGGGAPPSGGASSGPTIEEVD

Take “DNAJB1 (from UniProt P25685 1-340) (natural protein)”: the Thioflavin‐T fluorescence: elongation of α‐synuclein seeds (2 μM) by monomeric α‐synuclein (0–20 μM) with and without the Hsp70 chaperones (2 μM HspA8, 1 μM DNAJB1, 0.2 μM Hsp110), 30°C was found to be 3 fold.

Substance “HspA8 (from UniProt P11142 1-646) (natural protein)” came in with a Thioflavin‐T fluorescence: elongation of α‐synuclein seeds (2 μM) by monomeric α‐synuclein (0–20 μM) with and without the Hsp70 chaperones (2 μM HspA8, 1 μM DNAJB1, 0.2 μM Hsp110), 30°C of 3 fold.
